For orientation: stoichiometry N means the number of molecules, sites or subunits per partner or assembly.

The target in assay [1] is FcγRs (mouse (endogenous in C57BL/6 mice)).
Assay [2] addresses dimer of trimer CD70-Fc fusion protein (dtCD70-Fc) (mouse) (UniProt O55237). Briefly: SDS-PAGE under non-reducing and reducing conditions; 5 ug purified protein on a 10% SDS-polyacrylamide gel, Coomassie blue; disulfide-linked dimer of the Fc fusion chain.
In assay [3] the target is T1, Recombinant mouse CD27-human Fc (mouse, UniProt P41272 24-182).
T1 construct: CD27, mouse; Captured by anti-human IgG on the chip; no catalogue number is printed; also called CD27-Fc; mouse CD27 protein; source: bought: R&D systems
T1 sequence (looked up): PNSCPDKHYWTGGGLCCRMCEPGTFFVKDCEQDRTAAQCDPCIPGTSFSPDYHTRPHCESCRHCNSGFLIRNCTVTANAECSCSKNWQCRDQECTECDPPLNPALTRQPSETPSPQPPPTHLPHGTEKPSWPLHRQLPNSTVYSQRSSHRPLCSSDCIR
Briefly: SPR; apparent; Biacore T200, HBS-EP+; mouse CD27-human Fc captured on anti-human IgG coupled to a CM5 chip; CD70 fusion proteins (1.56, 6.25, 25 and 100 nM) injected at 30 ul/min; KD from ka and kd. For orientation: In SPR one partner is held on a chip, and binding of the other changes the refractive index at the surface.

The target of assay [4] is dimer of trimer CD70-Fc fusion protein (dtCD70-Fc) (mouse) (UniProt O55237). Briefly: SPR; about 2000 RU of dtCD70-Fc or anti-CD27 immobilised on a CM5 chip by amine coupling; mouse FcRn (0, 0.8, 4, 20, 100, 500 nM) injected 3 min at 30 ul/min in HBS-EP+ pH 6; KD from steady-state binding levels.
Assay [5] deals with anti-CD27 mouse IgG1 (recombinant, from hybridoma AT124-1) (mouse). Described as above.

Read-outs that look alike come from different tables or passages of the source.

Consider “Endo H treated dtCD70-Fc (from UniProt O55237 41-195; O55237 41-195; O55237 41-195) (Fc fusion)”, for which the OT-I T cell expansion in vivo during the primary response, Endo H treated dtCD70-Fc (wild-type Fc) against Endo H treated dtCD70-Fc(D265A) in assay [1] was 3 fold. Molecule “dimer of trimer CD70-Fc fusion protein (dtCD70-Fc) (from UniProt O55237 41-195; O55237 41-195; O55237 41-195)” showed a stoichiometry N in assay [2] of 2. Besides, the Kd in assay [3] is 0.6 nM.

B1: recombinant mouse FcRn (receptor)
chain: SETRPPLMYHLTAVSNPSTGLPSFWATGWLGPQQYLTYNSLRQEADPCGAWMWENQVSWYWEKETTDLKSKEQLFLEALKTLEKILNGTYTLQGLLGCELASDNSSVPTAVFALNGEEFMKFNPRIGNWTGEWPETEIVANLWMKQPDAARKESEFLLNSCPERLLGHLERGRRNLEWKEPPSMRLKARPGNSGSSVLTCAAFSFYPPELKFRFLRNGLASGSGNCSTGPNGDGSFHAWSLLEVKRGDEHHYQCQVEHEGLAQPLTVDLDSSARSS
B1: the Kd in assay [4] amounted to 46 nM; in assay [5] it was 49 nM.

B2: Soluble trimeric CD70 (tCD70) (ligand, mouse, UniProt O55237 41-195, looked up)
chain: SGLLSKQQQRLLEHPEPHTAELQLNLTVPRKDPTLRWGAGPALGRSFTHGPELEEGHLRIHQDGLYRLHIQVTLANCSSPGSTLQHRATLAVGICSPAAHGISLLRGRFGQDCTVALQRLTYLVHGDVLCTNLTLPLLPSRNADETFFGVQWICP
notes: CD70, mouse, extracellular domain S41-P195; Predicted chain MW 51.5 kDa; also called CD4 fusion protein; not shown: CD4 domains 3 and 4 (mouse), N-terminal, kept
In the case of B2, the Kd in assay [3] (both partners purified) turned out to be 1.2 nM.

The values are drawn from article PMC10641686, “Fcγ receptor binding is required for maximal immunostimulation by CD70-Fc” (Frontiers in Immunology, 2023).
